1 protein from PMC11257509 (bioRxiv, 2024) can be followed below.

The data set deals with the molecule itself. The data set can be described thus: SEC. (In general: Size exclusion chromatography separates by hydrodynamic size, large species first.)

B1: 10His-pG-Tn5(E54K, L372P) (enzyme, UniProt Q46731 1-476, looked up)
chain: MITSALHRAADWAKSVFSSAALGDPRRTARLVNVAAQLAKYSGKSITISSEGSKAMQEGAYRFIRNPNVSAEAIRKAGAMQTVKLAQEFPELLAIEDTTSLSYRHQVAEELGKLGSIQDKSRGWWVHSVLLLEATTFRTVGLLHQEWWMRPDDPADADEKESGKWLAAAATSRLRMGSMMSNVIAVCDREADIHAYLQDKLAHNERFVVRSKHPRKDVESGLYLYDHLKNQPELGGYQISIPQKGVVDKRGKRKNRPARKASLSLRSGRITLKQGNITLNAVLAEEINPPKGETPLKWLLLTSEPVESLAQALRVIDIYTHRWRIEEFHKAWKTGAGAERQRMEEPDNLERMVSILSFVAVRLLQLRESFTPPQALRAQGLLKEAEHVESQSAETVLTPDECQLLGYLDKGKRKRKEKAGSLQWAYMAIARLGGFMDSKRTGIASWGALWEGWEALQSKLDGFLAAKDLMAQGIKI
B1: the binding result was “binds”.
